# Data reported in article PMC9482650, “Quantitative fragmentomics allow affinity mapping of interactomes” (Nature Communications, 2022).
# T1: DFNB31_3, Q9P202
# T1 sequence (Q9P202 811-907, limits assumed, looked up): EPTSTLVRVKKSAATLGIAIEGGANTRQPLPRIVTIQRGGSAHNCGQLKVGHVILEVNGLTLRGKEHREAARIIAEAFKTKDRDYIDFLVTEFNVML
# T2: DFNB31_1, Q9P202
# T2 sequence (Q9P202 135-233, limits assumed, looked up): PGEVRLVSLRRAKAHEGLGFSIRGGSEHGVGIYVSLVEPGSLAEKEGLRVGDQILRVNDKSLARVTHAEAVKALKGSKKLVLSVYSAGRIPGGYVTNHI
# T3: PARD3B_1, Q8TEW8
# T3 sequence (Q8TEW8 196-299, limits assumed, looked up): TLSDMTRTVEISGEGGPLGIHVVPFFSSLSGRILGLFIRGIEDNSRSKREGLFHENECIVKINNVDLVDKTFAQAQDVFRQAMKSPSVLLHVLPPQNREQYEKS
# T4: SNTG1, Q9NSN8
# T4 sequence (Q9NSN8 52-150, limits assumed, looked up): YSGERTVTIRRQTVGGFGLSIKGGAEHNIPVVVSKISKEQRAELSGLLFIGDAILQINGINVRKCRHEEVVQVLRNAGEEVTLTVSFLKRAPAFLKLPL
# T5: HTRA3, P83110
# T5 sequence (P83110 354-453, limits assumed, looked up): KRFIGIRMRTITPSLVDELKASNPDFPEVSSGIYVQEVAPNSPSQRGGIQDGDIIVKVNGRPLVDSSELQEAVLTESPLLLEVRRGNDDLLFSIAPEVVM
# T6: SNTA1, Q13424
# T6 sequence (Q13424 82-180, limits assumed, looked up): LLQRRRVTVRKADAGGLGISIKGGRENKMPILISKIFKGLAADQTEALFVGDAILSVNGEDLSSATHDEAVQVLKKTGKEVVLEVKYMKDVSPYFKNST
# T7: ARHGAP21, Q5T5U3
# T7 sequence (Q5T5U3 45-169, limits assumed, looked up): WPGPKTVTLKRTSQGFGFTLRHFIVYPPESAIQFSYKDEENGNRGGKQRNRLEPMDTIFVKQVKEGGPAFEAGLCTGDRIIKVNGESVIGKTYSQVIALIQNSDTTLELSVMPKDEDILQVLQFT
# T8: SIPA1L2, Q9P2F8
# T8 sequence (Q9P2F8 945-1036, limits assumed, looked up): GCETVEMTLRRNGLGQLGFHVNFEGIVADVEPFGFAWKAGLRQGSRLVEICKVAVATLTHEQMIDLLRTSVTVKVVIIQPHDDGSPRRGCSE
# T9: PDZD7_3, Q9H5P4
# T9 sequence (Q9H5P4 857-944, limits assumed, looked up): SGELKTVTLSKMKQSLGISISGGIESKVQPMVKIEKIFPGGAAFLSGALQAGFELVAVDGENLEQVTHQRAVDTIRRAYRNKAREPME
# T10: TJP3_3, O95049
# T10 sequence (O95049 375-456, limits assumed, looked up): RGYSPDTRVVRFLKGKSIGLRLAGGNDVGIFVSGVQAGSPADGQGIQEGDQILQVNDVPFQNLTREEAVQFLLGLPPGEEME
# T11: CARD11, Q9BXL7
# T11 sequence (Q9BXL7 662-765, limits assumed, looked up): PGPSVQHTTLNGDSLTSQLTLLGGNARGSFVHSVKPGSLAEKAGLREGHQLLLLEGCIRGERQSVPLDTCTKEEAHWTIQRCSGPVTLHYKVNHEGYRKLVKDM
# T12: APBA2_2, Q99767
# T12 sequence (Q99767 654-744, limits assumed, looked up): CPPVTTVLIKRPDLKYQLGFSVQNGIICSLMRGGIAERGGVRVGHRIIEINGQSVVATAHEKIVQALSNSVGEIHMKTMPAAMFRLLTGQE
# T13: FRMPD1, Q5SYB0
# T13 sequence (Q5SYB0 52-145, limits assumed, looked up): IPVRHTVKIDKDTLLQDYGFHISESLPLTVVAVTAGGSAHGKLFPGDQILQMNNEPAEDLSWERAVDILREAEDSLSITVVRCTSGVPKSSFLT
# Molecular target: T1, DFNB31_3, Q9P202
# Assay: holdup assay
# Set-up: key: below the threshold = too weak to quantify, mostly under pKd 3.1 to 4
# Details: plain residues with an end cap or a label only (N-terminal biotin on a linker: ado-ado)
row,Binder,pKd
1,"GTMFLRETSL [GUCY1A2, P33402]",3.5
2,"PLATCDETSI [SEMA4F, O95754]",3.7

# Molecular target: T2, DFNB31_1, Q9P202
# Assay: holdup assay
# Set-up: key: below the threshold = too weak to quantify, mostly under pKd 3.1 to 4
# Details: plain residues with an end cap or a label only (N-terminal biotin on a linker: ado-ado)
row,Binder,pKd
1,"GTMFLRETSL [GUCY1A2, P33402]",4.85
2,"PLATCDETSI [SEMA4F, O95754]",5.13

# Molecular target: T3, PARD3B_1, Q8TEW8
# Assay: holdup assay
# Set-up: key: below the threshold = too weak to quantify, mostly under pKd 3.1 to 4
# Details: plain residues with an end cap or a label only (N-terminal biotin on a linker: ado-ado)
row,Binder,pKd
1,"GTMFLRETSL [GUCY1A2, P33402]",3.88
2,"PLATCDETSI [SEMA4F, O95754]",below the threshold

# Molecular target: NHERF4_2, Q86UT5
# Assay: holdup assay
# Set-up: key: below the threshold = too weak to quantify, mostly under pKd 3.1 to 4
# Details: plain residues with an end cap or a label only (N-terminal biotin on a linker: ado-ado)
# Sequence of NHERF4_2, Q86UT5 (Q86UT5 220-308): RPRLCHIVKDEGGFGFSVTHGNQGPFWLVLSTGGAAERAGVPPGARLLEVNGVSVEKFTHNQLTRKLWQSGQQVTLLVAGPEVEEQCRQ
row,Binder,pKd
1,"GTMFLRETSL [GUCY1A2, P33402]",below the threshold
2,"PLATCDETSI [SEMA4F, O95754]",below the threshold

# Molecular target: MAGI1_2, Q96QZ7
# Assay: holdup assay
# Set-up: key: below the threshold = too weak to quantify, mostly under pKd 3.1 to 4
# Details: plain residues with an end cap or a label only (N-terminal biotin on a linker: ado-ado)
# Sequence of MAGI1_2, Q96QZ7 (Q96QZ7 456-580): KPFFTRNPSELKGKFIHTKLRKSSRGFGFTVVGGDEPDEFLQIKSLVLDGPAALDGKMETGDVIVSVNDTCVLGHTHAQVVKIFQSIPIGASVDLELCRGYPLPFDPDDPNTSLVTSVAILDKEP
row,Binder,pKd
1,"GTMFLRETSL [GUCY1A2, P33402]",4.24
2,"PLATCDETSI [SEMA4F, O95754]",below the threshold

# Molecular target: T4, SNTG1, Q9NSN8
# Assay: holdup assay
# Set-up: key: below the threshold = too weak to quantify, mostly under pKd 3.1 to 4
# Details: plain residues with an end cap or a label only (N-terminal biotin on a linker: ado-ado)
row,Binder,pKd
1,"GTMFLRETSL [GUCY1A2, P33402]",5.09
2,"PLATCDETSI [SEMA4F, O95754]",4.53

# Molecular target: SCRIB_1, Q14160
# Assay: holdup assay
# Set-up: key: below the threshold = too weak to quantify, mostly under pKd 3.1 to 4
# Details: plain residues with an end cap or a label only (N-terminal biotin on a linker: ado-ado)
# Sequence of SCRIB_1, Q14160 (Q14160 718-814): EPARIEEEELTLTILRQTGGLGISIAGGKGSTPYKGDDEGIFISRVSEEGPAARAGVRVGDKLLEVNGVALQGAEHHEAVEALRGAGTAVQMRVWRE
row,Binder,pKd
1,"GTMFLRETSL [GUCY1A2, P33402]",5.69
2,"PLATCDETSI [SEMA4F, O95754]",4.92

# Molecular target: LIMK2, P53671
# Assay: holdup assay
# Set-up: key: below the threshold = too weak to quantify, mostly under pKd 3.1 to 4
# Details: plain residues with an end cap or a label only (N-terminal biotin on a linker: ado-ado)
# Sequence of LIMK2, P53671 (P53671 143-248): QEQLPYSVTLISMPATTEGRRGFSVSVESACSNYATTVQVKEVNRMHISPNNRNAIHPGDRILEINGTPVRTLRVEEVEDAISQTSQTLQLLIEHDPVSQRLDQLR
row,Binder,pKd
1,"GTMFLRETSL [GUCY1A2, P33402]",below the threshold
2,"PLATCDETSI [SEMA4F, O95754]",below the threshold

# Molecular target: T5, HTRA3, P83110
# Assay: holdup assay
# Set-up: key: below the threshold = too weak to quantify, mostly under pKd 3.1 to 4
# Details: plain residues with an end cap or a label only (N-terminal biotin on a linker: ado-ado)
row,Binder,pKd
1,"GTMFLRETSL [GUCY1A2, P33402]",below the threshold
2,"PLATCDETSI [SEMA4F, O95754]",below the threshold

# Molecular target: T6, SNTA1, Q13424
# Assay: holdup assay
# Set-up: key: below the threshold = too weak to quantify, mostly under pKd 3.1 to 4
# Details: plain residues with an end cap or a label only (N-terminal biotin on a linker: ado-ado)
row,Binder,pKd
1,"GTMFLRETSL [GUCY1A2, P33402]",5.64
2,"PLATCDETSI [SEMA4F, O95754]",4.01

# Molecular target: T7, ARHGAP21, Q5T5U3
# Assay: holdup assay
# Set-up: key: below the threshold = too weak to quantify, mostly under pKd 3.1 to 4
# Details: plain residues with an end cap or a label only (N-terminal biotin on a linker: ado-ado)
row,Binder,pKd
1,"GTMFLRETSL [GUCY1A2, P33402]",4.7
2,"PLATCDETSI [SEMA4F, O95754]",below the threshold

# Molecular target: T8, SIPA1L2, Q9P2F8
# Assay: holdup assay
# Set-up: key: below the threshold = too weak to quantify, mostly under pKd 3.1 to 4
# Details: plain residues with an end cap or a label only (N-terminal biotin on a linker: ado-ado)
row,Binder,pKd
1,"GTMFLRETSL [GUCY1A2, P33402]",below the threshold
2,"PLATCDETSI [SEMA4F, O95754]",below the threshold

# Molecular target: GRIP2_3, Q9C0E4
# Assay: holdup assay
# Set-up: key: below the threshold = too weak to quantify, mostly under pKd 3.1 to 4
# Details: plain residues with an end cap or a label only (N-terminal biotin on a linker: ado-ado)
# Sequence of GRIP2_3, Q9C0E4 (Q9C0E4 238-339): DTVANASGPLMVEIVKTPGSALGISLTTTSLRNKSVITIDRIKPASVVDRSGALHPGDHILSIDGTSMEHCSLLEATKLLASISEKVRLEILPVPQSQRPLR
row,Binder,pKd
1,"GTMFLRETSL [GUCY1A2, P33402]",below the threshold
2,"PLATCDETSI [SEMA4F, O95754]",below the threshold

# Molecular target: SCRIB_3, Q14160
# Assay: holdup assay
# Set-up: key: below the threshold = too weak to quantify, mostly under pKd 3.1 to 4
# Details: plain residues with an end cap or a label only (N-terminal biotin on a linker: ado-ado)
# Sequence of SCRIB_3, Q14160 (Q14160 999-1103): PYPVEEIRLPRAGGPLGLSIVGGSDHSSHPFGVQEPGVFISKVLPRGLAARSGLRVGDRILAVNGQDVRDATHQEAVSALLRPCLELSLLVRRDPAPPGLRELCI
row,Binder,pKd
1,"GTMFLRETSL [GUCY1A2, P33402]",5.37
2,"PLATCDETSI [SEMA4F, O95754]",4.81

# Molecular target: T9, PDZD7_3, Q9H5P4
# Assay: holdup assay
# Set-up: key: below the threshold = too weak to quantify, mostly under pKd 3.1 to 4
# Details: plain residues with an end cap or a label only (N-terminal biotin on a linker: ado-ado)
row,Binder,pKd
1,"GTMFLRETSL [GUCY1A2, P33402]",4.97
2,"PLATCDETSI [SEMA4F, O95754]",4.43

# Molecular target: GORASP1, Q9BQQ3
# Assay: holdup assay
# Set-up: key: below the threshold = too weak to quantify, mostly under pKd 3.1 to 4
# Details: plain residues with an end cap or a label only (N-terminal biotin on a linker: ado-ado)
# Sequence of GORASP1, Q9BQQ3 (Q9BQQ3 1-208): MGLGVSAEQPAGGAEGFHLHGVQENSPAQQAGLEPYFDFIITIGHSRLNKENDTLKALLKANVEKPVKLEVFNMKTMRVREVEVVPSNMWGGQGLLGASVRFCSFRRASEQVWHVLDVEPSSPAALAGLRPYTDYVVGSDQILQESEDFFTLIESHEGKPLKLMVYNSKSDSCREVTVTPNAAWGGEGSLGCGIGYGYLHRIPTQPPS
row,Binder,pKd
1,"GTMFLRETSL [GUCY1A2, P33402]",below the threshold
2,"PLATCDETSI [SEMA4F, O95754]",below the threshold

# Molecular target: T10, TJP3_3, O95049
# Assay: holdup assay
# Set-up: key: below the threshold = too weak to quantify, mostly under pKd 3.1 to 4
# Details: plain residues with an end cap or a label only (N-terminal biotin on a linker: ado-ado)
row,Binder,pKd
1,"GTMFLRETSL [GUCY1A2, P33402]",below the threshold
2,"PLATCDETSI [SEMA4F, O95754]",below the threshold

# Molecular target: TJP2_1, Q9UDY2
# Assay: holdup assay
# Set-up: key: below the threshold = too weak to quantify, mostly under pKd 3.1 to 4
# Details: plain residues with an end cap or a label only (N-terminal biotin on a linker: ado-ado)
# Sequence of TJP2_1, Q9UDY2 (Q9UDY2 24-128): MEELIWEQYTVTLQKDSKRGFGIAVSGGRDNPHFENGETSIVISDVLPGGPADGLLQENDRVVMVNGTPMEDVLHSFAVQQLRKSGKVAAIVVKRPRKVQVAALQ
row,Binder,pKd
1,"GTMFLRETSL [GUCY1A2, P33402]",below the threshold
2,"PLATCDETSI [SEMA4F, O95754]",below the threshold

# Molecular target: T11, CARD11, Q9BXL7
# Assay: holdup assay
# Set-up: key: below the threshold = too weak to quantify, mostly under pKd 3.1 to 4
# Details: plain residues with an end cap or a label only (N-terminal biotin on a linker: ado-ado)
row,Binder,pKd
1,"GTMFLRETSL [GUCY1A2, P33402]",below the threshold
2,"PLATCDETSI [SEMA4F, O95754]",below the threshold

# Molecular target: T12, APBA2_2, Q99767
# Assay: holdup assay
# Set-up: key: below the threshold = too weak to quantify, mostly under pKd 3.1 to 4
# Details: plain residues with an end cap or a label only (N-terminal biotin on a linker: ado-ado)
row,Binder,pKd
1,"GTMFLRETSL [GUCY1A2, P33402]",below the threshold
2,"PLATCDETSI [SEMA4F, O95754]",below the threshold

# Molecular target: TJP1_2, Q07157
# Assay: holdup assay
# Set-up: key: below the threshold = too weak to quantify, mostly under pKd 3.1 to 4
# Details: plain residues with an end cap or a label only (N-terminal biotin on a linker: ado-ado)
# Sequence of TJP1_2, Q07157 (Q07157 181-274): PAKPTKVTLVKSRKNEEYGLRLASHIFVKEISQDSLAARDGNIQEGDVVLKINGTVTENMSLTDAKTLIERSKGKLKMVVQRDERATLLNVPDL
row,Binder,pKd
1,"GTMFLRETSL [GUCY1A2, P33402]",below the threshold
2,"PLATCDETSI [SEMA4F, O95754]",below the threshold

# Molecular target: GRIP2_7, Q9C0E4
# Assay: holdup assay
# Set-up: key: below the threshold = too weak to quantify, mostly under pKd 3.1 to 4
# Details: plain residues with an end cap or a label only (N-terminal biotin on a linker: ado-ado)
# Sequence of GRIP2_7, Q9C0E4 (Q9C0E4 934-1023): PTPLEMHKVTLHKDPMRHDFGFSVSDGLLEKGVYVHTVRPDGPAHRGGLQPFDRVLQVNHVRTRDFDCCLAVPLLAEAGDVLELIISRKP
row,Binder,pKd
1,"GTMFLRETSL [GUCY1A2, P33402]",3.84
2,"PLATCDETSI [SEMA4F, O95754]",below the threshold

# Molecular target: PARD3_3, Q8TEW0
# Assay: holdup assay
# Set-up: key: below the threshold = too weak to quantify, mostly under pKd 3.1 to 4
# Details: plain residues with an end cap or a label only (N-terminal biotin on a linker: ado-ado)
# Sequence of PARD3_3, Q8TEW0 (Q8TEW0 582-685): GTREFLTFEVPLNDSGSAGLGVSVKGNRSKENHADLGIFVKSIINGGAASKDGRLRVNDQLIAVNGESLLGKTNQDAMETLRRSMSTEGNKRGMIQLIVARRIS
row,Binder,pKd
1,"GTMFLRETSL [GUCY1A2, P33402]",below the threshold
2,"PLATCDETSI [SEMA4F, O95754]",3.9

# Molecular target: T13, FRMPD1, Q5SYB0
# Assay: holdup assay
# Set-up: key: below the threshold = too weak to quantify, mostly under pKd 3.1 to 4
# Details: plain residues with an end cap or a label only (N-terminal biotin on a linker: ado-ado)
row,Binder,pKd
1,"GTMFLRETSL [GUCY1A2, P33402]",below the threshold
2,"PLATCDETSI [SEMA4F, O95754]",below the threshold
